As a reminder, the Kd is the concentration at which binding is half-saturated.

The values below come from paper PMC9034101, “Enzymatic analysis of WWP2 E3 ubiquitin ligase using protein microarrays identifies autophagy-related substrates” (The Journal of Biological Chemistry, 2022).

In this experiment the target is T1, WWP2 WT (human, UniProt O00308 1-870).
T1 construct: called the ~100 kDa WWP2 protein; Unlabelled WWP2 titrated in the fluorescence anisotropy assays; also called WT WWP2; source: E. coli (BL-21 (DE3) Codon+ or BL21 Rosetta (DE3) pLysS), purified (glutathione agarose, GST removed, size exclusion)
In words: fluorescence polarisation; fluorescence anisotropy; 100 nM fluorescein-labeled WBP2, WWP2 titrated; 23 °C; quadratic binding fit. Conditions: both partners purified.

T1 sequence (O00308 whole entry): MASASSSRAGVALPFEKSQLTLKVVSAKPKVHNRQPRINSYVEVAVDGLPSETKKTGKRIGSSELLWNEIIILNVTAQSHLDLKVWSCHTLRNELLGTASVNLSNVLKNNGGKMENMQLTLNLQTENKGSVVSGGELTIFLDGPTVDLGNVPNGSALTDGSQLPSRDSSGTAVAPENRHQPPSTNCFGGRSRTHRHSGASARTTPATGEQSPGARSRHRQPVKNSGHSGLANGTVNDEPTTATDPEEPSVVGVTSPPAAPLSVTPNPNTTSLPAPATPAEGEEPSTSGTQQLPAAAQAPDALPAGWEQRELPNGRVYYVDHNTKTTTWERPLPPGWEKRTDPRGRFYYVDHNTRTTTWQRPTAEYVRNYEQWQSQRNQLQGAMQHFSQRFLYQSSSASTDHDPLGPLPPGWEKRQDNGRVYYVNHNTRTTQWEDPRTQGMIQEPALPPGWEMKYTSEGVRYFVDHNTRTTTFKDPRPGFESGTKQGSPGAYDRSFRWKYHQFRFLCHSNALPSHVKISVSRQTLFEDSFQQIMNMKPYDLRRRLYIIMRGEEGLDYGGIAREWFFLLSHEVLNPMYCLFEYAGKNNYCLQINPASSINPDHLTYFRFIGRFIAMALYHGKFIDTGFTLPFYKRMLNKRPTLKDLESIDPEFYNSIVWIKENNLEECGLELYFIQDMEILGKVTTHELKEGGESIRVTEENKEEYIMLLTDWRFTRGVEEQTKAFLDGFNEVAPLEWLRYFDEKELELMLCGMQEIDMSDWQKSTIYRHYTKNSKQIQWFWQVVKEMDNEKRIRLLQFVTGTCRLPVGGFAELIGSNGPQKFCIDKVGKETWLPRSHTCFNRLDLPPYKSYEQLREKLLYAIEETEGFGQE

B1: Fluorescein N-terminal-labeled WBP2 (aa. 149-261) (domain or fragment, human, UniProt Q969T9 149-261, looked up)
chain: PSGAYVYPPPVANGMYPCPPGYPYPPPPPEFYPGPPMMDGAMGYVQPPPPPYPGPMEPPVSGPDVPSTPAAEAKAAEAAASAYYNPGNPHNVYMPTSQPPPPPYYPPEDKKTQ
modifications: fluorescein (5/6-carboxyfluorescein, FAM) on the N-terminus
notes: WBP2, human, aa; 149-261, from pET28b-WBP2; Labelled 'with a similar procedure as that used for WWP2' (N-terminal Cys after protease cleavage), so an N-terminal Cys and loss of the tag may apply; also called FAM labeled WBP2; fluorescein-labeled WBP2; source: E. coli Rosetta pLysS, purified (Ni-NTA, Superdex 75), fluorescein labelled
Turning to B1, the dissociation constant (Kd) turned out to be 3.7 µM.
